Experimental data taken from publication PMC10197521 (bioRxiv, 2023).
Substitutions are numbered along the chain they refer to.

Assays:
Experiment in all cases: co-IP
[1] = biological target: T1, C-terminally truncated mouse CD4 T1 (mouse, UniProt P06332-1 27-422)
T1 sequence (looked up): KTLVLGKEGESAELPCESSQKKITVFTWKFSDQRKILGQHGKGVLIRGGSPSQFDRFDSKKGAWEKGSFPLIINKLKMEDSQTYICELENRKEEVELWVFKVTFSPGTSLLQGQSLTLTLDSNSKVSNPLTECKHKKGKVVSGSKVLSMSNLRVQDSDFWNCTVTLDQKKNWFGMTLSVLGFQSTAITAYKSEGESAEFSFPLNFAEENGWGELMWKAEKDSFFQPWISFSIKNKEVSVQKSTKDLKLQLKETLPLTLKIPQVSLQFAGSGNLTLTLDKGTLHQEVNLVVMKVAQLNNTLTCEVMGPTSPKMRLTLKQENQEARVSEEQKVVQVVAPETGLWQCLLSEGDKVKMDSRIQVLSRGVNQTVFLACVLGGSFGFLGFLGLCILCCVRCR

T1-Palm (2C) = biological target: T2, T1-Palm (2C) (mouse, UniProt P06332-1 27-422, C418S | C421S)
T2 sequence (looked up): T1 sequence (looked up) with C392S, C395S

T1-TP (2C) = biological target: T3, T1-TP (2C) (mouse, UniProt P06332-1 27-422, G403V | G406L | C418S | C421S)
T3 sequence (looked up): T1 sequence (looked up) with G377V, G380L, C392S, C395S

T1-TP (3C) = biological target: T4, T1-TP (3C) (mouse, UniProt P06332-1 27-422, G403V | G406L | C417S | C418S | C421S)
T4 sequence (looked up): T1 sequence (looked up) with G377V, G380L, C391S, C392S, C395S

[2] = biological target: T5, T1-TMD (CD4 T1 with GGXXG to GVXXL) (mouse, UniProt P06332-1 27-422, G403V | G406L)
T5 sequence (looked up): T1 sequence (looked up) with G377V, G380L

Lck DRM AUC (LCK found with CD4, normalised to CD4), percent of WT [1]: 28.8 % of WT control | Lck DSM AUC (LCK found with CD4, normalised to CD4), percent of WT [1]: 16.1 % of WT control | Lck Total AUC (LCK found with CD4, normalised to CD4), percent of WT [1]: 19.2 % of WT control | Lck DRM AUC (LCK found with CD4, normalised to CD4), percent of T1 (T1-Palm (2C)): 274 % of T1 control | Lck DSM AUC (LCK found with CD4, normalised to CD4), percent of T1 (T1-Palm (2C)): 131 % of T1 control | Lck Total AUC (LCK found with CD4, normalised to CD4), percent of T1 (T1-Palm (2C)): 139 % of T1 control | Lck DRM AUC (LCK found with CD4, normalised to CD4), percent of T1 (T1-TP (2C)): 121 % of T1 control | Lck DSM AUC (LCK found with CD4, normalised to CD4), percent of T1 (T1-TP (2C)): 115 % of T1 control | Lck Total AUC (LCK found with CD4, normalised to CD4), percent of T1 (T1-TP (2C)): 113 % of T1 control | Lck DRM AUC (LCK found with CD4, normalised to CD4), percent of T1 (T1-TP (3C)): 86.8 % of T1 control | Lck DSM AUC (LCK found with CD4, normalised to CD4), percent of T1 (T1-TP (3C)): 103 % of T1 control | Lck Total AUC (LCK found with CD4, normalised to CD4), percent of T1 (T1-TP (3C)): 101 % of T1 control | Lck DRM AUC (LCK found with CD4, normalised to CD4), percent of T1 [2]: 62.4 % of T1 control | Lck DSM AUC (LCK found with CD4, normalised to CD4), percent of T1 [2]: 111 % of T1 control | Lck Total AUC (LCK found with CD4, normalised to CD4), percent of T1 [2]: 93 % of T1 control
B1: Src kinase LCK (enzyme, UniProt P06240 1-509, looked up)
chain: MGCVCSSNPEDDWMENIDVCENCHYPIVPLDSKISLPIRNGSEVRDPLVTYEGSLPPASPLQDNLVIALHSYEPSHDGDLGFEKGEQLRILEQSGEWWKAQSLTTGQEGFIPFNFVAKANSLEPEPWFFKNLSRKDAERQLLAPGNTHGSFLIRESESTAGSFSLSVRDFDQNQGEVVKHYKIRNLDNGGFYISPRITFPGLHDLVRHYTNASDGLCTKLSRPCQTQKPQKPWWEDEWEVPRETLKLVERLGAGQFGEVWMGYYNGHTKVAVKSLKQGSMSPDAFLAEANLMKQLQHPRLVRLYAVVTQEPIYIITEYMENGSLVDFLKTPSGIKLNVNKLLDMAAQIAEGMAFIEEQNYIHRDLRAANILVSDTLSCKIADFGLARLIEDNEYTAREGAKFPIKWTAPEAINYGTFTIKSDVWSFGILLTEIVTHGRIPYPGMTNPEVIQNLERGYRMVRPDNCPEELYHLMMLCWKERPEDRPTFDYLRSVLDDFFTATEGQYQPQP
